Laboratory results published in publication PMC7954794, “Protein context shapes the specificity of SH3 domain-mediated interactions in vivo” (Nature Communications, 2021).

B1: YLR196W_2 (protein, UniProt P21304 1-576, looked up)
Periodic tryptophan protein 1: MISATNWVPRGFSSEFPEKYVLDDEEVERINQLAQLNLDDAKATLEEAEGESGVEDDAATGSSNKLKDQLDIDDDLKEYNLEEYDDEEIADNEGGKDVSMFPGLSNDSDVKFHEGEKGEDPYISLPNQEDSQEEKQELQVYPSDNLVLAARTEDDVSYLDIYVYDDGAGFHSSDIPVEEGDEADPDVARGLVRDPALYVHHDLMLPAFPLCVEWLDYKVGSNSEEAANYAAIGTFDPQIEIWNLDCVDKAFPDMILGEPLDNSMVSLKSKKKKKKSKTGHITTHHTDAVLSMAHNKYFRSVLASTSADHTVKLWDLNSGNAARSLASIHSNKNVSSSEWHMLNGSILLTGGYDSRVALTDVRISDESQMSKYWSAMAGEEIETVTFASENIILCGTDSGNVYSFDIRNNENRKPVWTLKAHDAGISTLCSNKFIPGMMSTGAMGEKTVKLWKFPLDDATNTKGPSMVLSRDFDVGNVLTSSFAPDIEVAGTMVIGGVNKVLKLWDVFTNRSVRKSFKSELENVQARAKEEAQKIGKSSRIARKYTSNDNPDTVITIDDQGEDEEEREGGDEHDDMA
B2: YLR330W_2 (protein, UniProt Q12114 1-671, looked up)
Chitin biosynthesis protein …: MSSVDVLLTVGKLDASLALLTTQDHHVIEFPTVLLPENVKAGSIIKMQVSQNLEEEKKQRNHFKSIQAKILEKYGTHKPESPVLKIVNVTQTSCVLAWDPLKLGSAKLKSLILYRKGIRSMVIPNPFKVTTTKISGLSVDTPYEFQLKLITTSGTLWSEKVILRTHKMTDMSGITVCLGPLDPLKEISDLQISQCLSHIGARPLQRHVAIDTTHFVCNDLDNEESNEELIRAKHNNIPIVRPEWVRACEVEKRIVGVRGFYLDADQSILKNYTFPPVNEEELSYSKENEPVAEVADENKMPEDTTDVEQVASPNDNESNPSEAKEQGEKSGHETAPVSPVEDPLHASTALENETTIETVNPSVRSLKSEPVGTPNIEENKADSSAEAVVEEPNEAVAESSPNEEATGQKSEDTDTHSNEQADNGFVQTEEVAENNITTESAGENNEPADDAAMEFGRPEAEIETPEVNESIEDANEPAEDSNEPVEDSNKPVKDSNKPVEDSNKPVEDSNKPVEDSNKPVEDANEPVEDTSEPVEDAGEPVQETNEFTTDIASPRHQEEDIELEAEPKDATESVAVEPSNEDVKPEEKGSEAEDDINNVSKEAASGESTTHQKTEASASLESSAVTEEQETTEAEVNTDDVLSTKEAKKNTGNSNSNKKKNKKNKKKGKKK
B3: YFR040W_2 (protein, UniProt P43612 1-1002, looked up)
SIT4-associating protein …: MSFWPFGQNLNHSNINKILDEYFHVLHELERINPSVGKAIPAIFNNVQERGTSDSLDSIPEEYSHGDEVKTARGDQKSRFEKDDQQERYEKEEEERSMNSSESSTTSFSSGSTSKTDLDEEDISNATAPMMVTTKNLDNSFIERMLVETELLNELSRQNKTLLDFICFGFFFDKKTNKKVNNMEYLVDQLMECISKIKTATTVDLNNLIDYQEQQQLDDSSQEDVYVESDTEQEEEKEDDNNSNNKKRRKRGSSSFGNDDINNNDDDDDANEDDESAYLTKATIISEIFSLDIWLISESLVKNQSYLNKIWSIINQPNFNSENSPLVPIFLKINQNLLLTRQDQYLNFIRTERSFVDDMLKHVDISLLMDFFLKIISTDKIESPTGIIELVYDQNLISKCLSFLNNKESPADIQACVGDFLKALIAISANAPLDDISIGPNSLTRQLASPESIAKLVDIMINQRGAALNTTVSIVIELIRKNNSDYDQVNLLTTTIKTHPPSNRDPIYLGYLLRKFSNHLSDFFQIILDIENDANIPLHENQLHEKFKPLGFERFKVVELIAELLHCSNMGLMNSKRAERIARRRDKVRSQLSHHLQDALNDLSIEEKEQLKTKHSPTRDTDHDLKNNNGKIDNDNNDNDDESDYGDEIDESFEIPYINMKQNIKLRTDPTVGDLFKIKLYDTRIVSKIMELFLTHPWNNFWHNVIFDIIQQIFNGRMDFSYNSFLVLSLFNLKSSYQFMTDIVISDEKGTDVSRFSPVIRDPNFDFKITTDFILRGYQDSYKFYELRKMNLGYMGHIVLIAEEVVKFSKLYKVELISPDIQVILQTEEWQYYSEEVLNETRMMYSKILGGGSYIDDGNGNIIPQLPDNTTVLTPNGDASNNNEILDSDTGSSNGTSGGGQLINVESLEEQLSLSTESDLHNKLREMLINRAQEDVDNKNTENGVFILGPPEDKNSNSNINNTNHNSNNSNNNDNNDNNDNDNDNTRNYNEDADNDNDYDHE
B4: YMR216C_2 (protein, UniProt Q03656 1-742, looked up)
Serine/threonine-protein …: MGSSINYPGFVTKSAHLADTSTDASISCEEATSSQEAKKNFFQRDYNMMKKAPAPTKSKLSLALQTSKSSSSANGTVQEDTSSKTEDFSTKSIKKKPDSGVESHVSIQSDSGPQSDSDLDSDSSISSCDERNEESLKDYRPGGYHPAFKGEPYKDARYILVRKLGWGHFSTVWLAKDMVNNTHVAMKIVRGDKVYTEAAEDEIKLLQRVNDADNTKEDSMGANHILKLLDHFNHKGPNGVHVVMVFEVLGENLLALIKKYEHRGIPLIYVKQISKQLLLGLDYMHRRCGIIHTDIKPENVLMEIGDVEGIVQMVEALDKQKREAKRLQRHVSRSSDITANDSSDEKWAECQTSMPCGSSSNSKSRSIEKDLSKRCFRRPRRHTIITGSQPLPSPISSSNFFEMRAHFCGSSHNSFSSVSGNRNIPSSINNNSINNGIGIKNSNNSFLNSVPHSVTRMFINEDSNDNNNNDNSKNKNNNNNNSNNNNNEDIMNTPLHEEQLADSLSTFDISNISQSSDTNGPYISNTMDSNSNVSTDINSPENLIQIKIADLGNACWYDEHYTNSIQTREYRSPEVLLGAPWGCGADIWSTACLIFELITGDFLFEPDEGHSYTKDDDHIAQIIELLGELPSYLLRNGKYTRTFFNSRGLLRNISKLKFWPLEDVLTEKYKFSKDEAKEISDFLSPMLQLDPRKRADAGGLVNHPWLKDTLGMEEIRVPDRELYGSGSDIPGWFEEVRDHKRH

System: PPIs identified as affected by the SH3 domain deletions
Experiment: Liquid DHFR-PCA low-throughput validation of PPIs affected by SH3 deletion (Fig. S1D-E)
Type: cell-based, Saccharomyces cerevisiae
Details: bait LSB3; label = prey; liquid DHFR-PCA; prey _1 = lost, _2 = gained in screen
Method in brief: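 Yeast diploids from DHFR-PCA mating grown 48 h in synthetic complete MSG medium pH 6.0 with NAT and HPH, normalized to 1 OD and diluted to 0.1 OD in liquid PCA selection medium. Growth followed by OD every 15 min for 72 h at 30 °C.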

| Molecule | Ratio (Deletedscore / WTscore) |
| --- | --- |
| B1 | 1.184 |
| B2 | 1.34 |
| B3 | 1.731 |
| B4 | 1.244 |
